Reference: PMC11076500, “Impact of distinct FG nucleoporin repeats on Nup98 self-association” (Nature Communications, 2024)
Positions count from the first letter of the chain named. Names may count otherwise.

B1: Nup98^FG(298-327) peptide (peptide, UniProt P52948 298-327, looked up)
peptide: TGFSFGNTSTIGQPSTNTMGLFGVTQASQP
notes: Forms amyloid fibrils; each fibril layer holds five peptides (four parallel, one antiparallel); source: synthetic peptide (solid-phase synthesis, Genscript)
B2: FG-repeat domain of human Nup98 (Nup98^FG; residues 1-384), wild type (protein)
chain: MFNKSFGTPFGGGTGGFGTTSTFGQNTGFGTTSGGAFGTSAFGSSNNTGGLFGNSQTKPGGLFGTSSFSQPATSTSTGFGFGTSTGTANTLFGTASTGTSLFSSQNNAFAQNKPTGFGNFGTSTSSGGLFGTTNTTSNPFGSTSGSLFGPSSFTAAPTGTTIKFNPPTGTDTMVKAGVSTNISTKHQCITAMKEYESKSLEELRLEDYQANRKGPQNQVGAGTTTGLFGSSPATSSATGLFSSSTTNSGFAYGQNKTAFGTSTTGFGTNPGGLFGQQNQQTTSLFSKPFGQATTTQNTGFSFGNTSTIGQPSTNTMGLFGVTQASQPGGLFGTATNTSTGTAFGTGTGLFGQTNTGFGAVGSTLFGNNKLTTFGSSTTSAPSFG
B3: Nup98^FG F228S mutant (protein)
chain: B2 chain with F228S
B4: Nup98^FG F102S/F319S double mutant (protein)
chain: B2 chain with F102S, F319S
B5: Nup98^FG F102S mutant (protein)
chain: B2 chain with F102S
B6: Nup98^FG F319S mutant (protein)
chain: B2 chain with F319S

Assays:
[1] = molecular target: the molecule itself; assay: cryo-EM structure; amyloid fibrils from 2 mM peptide in water, 25 °C for one day; helical reconstruction, 2.67 Å; five peptides in each layer
P52948 = assay: 1D 1H NMR (loss of the signal of soluble protein); 100 μM protein in 50 mM sodium phosphate, 1 mM TCEP; pH raised from 3 to 7 with NaOH, measured immediately (deadtime ~5 min); 5 °C; amide region integrated; self-association into particles not detectable by NMR; conditions: other: 1D 1H NMR (loss of the signal of soluble protein)

Protein	binding result [1]	percent of the protein aggregated just after changing the pH to 7 (P52948)
B1	binds	–
B2	–	67 % of the wild-type protein forms aggregates
B3	–	in the F228S mutant 46% of the protein aggregates
B4	–	only 28 and 23 % of the protein aggregated, respectively
B5	–	only 28 and 23 % of the protein aggregated, respectively
B6	–	only 28 and 23 % of the protein aggregated, respectively
